Target: the molecule itself
Experiment: cryo-EM structure; single-particle analysis of native membrane vesicles holding ALFA-tagged Stomatin, isolated on ALFA Selector CE resin and eluted with 0.2 mM ALFA peptide; 20 mM K-HEPES pH 7.4, 300 mM KCl, 5 mM DTT; C16 then local C8 symmetry

B1: human Stomatin (natural protein, UniProt P27105-1 1-288, looked up)
chain: MAEKRHTRDSEAQRLPDSFKDSPSKGLGPCGWILVAFSFLFTVITFPISIWMCIKIIKEYERAIIFRLGRILQGGAKGPGLFFILPCTDSFIKVDMRTISFDIPPQEILTKDSVTISVDGVVYYRVQNATLAVANITNADSATRLLAQTTLRNVLGTKNLSQILSDREEIAHNMQSTLDDATDAWGIKVERVEIKDVKLPVQLQRAMAAEAEASREARAKVIAAEGEMNASRALKEASMVITESPAALQLRYLQTLTTIAAEKNSTIVFPLPIDMLQGIIGAKHSHLG
notes: Stomatin, human, UniProt P27105-1; full-length protein in its membrane environment; The final atomic model includes residues 14-18 and 29-278; The 16 identical chains adopt two alternating conformations (Conformer A and B); also called N-terminal ALFA-tagged human Stomatin; Stomatin complex; source: HEK293S GnTI- cells infected with BacMam baculovirus (pEG BacMam); isolated in native membrane …
- stoichiometry N: 16

From publication PMC12344292, “Structural basis for membrane microdomain formation by a human Stomatin complex” (Nature Communications, 2025)
